Assay results taken from article PMC3814152 (Molecular Biology of the Cell, 2013).

Target: the molecule itself
Test: SEC

B1: Mzt1-His6 (natural protein)
chain: MSESTKETIEVLYEIGTLLGTELDKTTLSLCISLCENNVHPEAIAQIIREIRMAQEQTVDTEPS
stoichiometry N: ~12
